# From patent US20260242839A1, “GLYCOSIDE PRODUCT BIOSYNTHESIS AND RECOVERY” (Manus Bio Inc., priority 2023, published 2026)
# B1: SEQ ID NO: 54: UGT enzyme (Ziziphus jujube) (protein, listed as Ziziphus jujuba)
# chain: MMERQRSIKVLMFPWLAHGHISPFLELAKRLTDRNFQIYFCSTPVNLTSVKPKLSQKYSSSIKLVELHLPSLPDLPPHYHTTNGLALNLIPTLKKAFDMSSSSFSTILSTIKPDLLIYDFLQPWAPQLASCMNIPAVNFLSAGASMVSFVLHSIKYNGDDHDDEFLTTELHLSDSMEAKFAEMTESSPDEHIDRAVTCLERSNSLILIKSFRELEGKYLDYLSLSFAKKVVPIGPLVAQDTNPEDDSMDIINWLDKKEKSSTVFVSFGSEYYLTNEEMEEIAYGLELSKVNFIWVVRFPLGQKMAVEEALPKGFLERVGEKGMVVEDWAPQMKILGHSSIGGFVSHCGWSSLMESLKLGVPIIAMPMQLDQPINAKLVERSGVGLEVKRDKNGRIEREYLAKVIREIVVEKARQDIEKKAREMSNIITEKGEEEIDNVVEELAKLCGM
# B2: SEQ ID NO: 72: HvUGT B1 (Hordeum vulgare subsp. Vulgare) (protein)
# chain: MAQAESERMRVVMFPWLAHGHINPYLELAKRLIASASGDHHLDVVVHLVSTPANLAPLAHHQTDRLRLVELHLPSLPDLPPALHTTKGLPARLMPVLKRACDLAAPRFGALLDELCPDILVYDFIQPWAPLEAEARGVPAFHFATCGAAATAFFIHCLKTDRPPSAFPFESISLGGVDEDAKYTALVTVREDSTALVAERDRLPLSLERSSGFVAVKSSADIERKYMEYLSQLLGKEIIPTGPLLVDSGGSEEQRDGGRIMRWLDGEEPGSVVFVSFGSEYFMSEHQMAQMARGLELSGVPFLWVVRFPNAEDDARGAARSMPPGFEPELGLVVEGWAPQRRILSHPSCGAFLTHCGWSSVLESMAAGVPMVALPLHIDQPLNANLAVELGAAAARVKQERFGEFTAEEVARAVRAAVKGKEGEAARRRARELQEVVARNNGNDGQIATLLQRMARLCGKDQAVPN
# modifications: Hordeum vulgare
# B3: SEQ ID NO: 13: Synthetic UGT enzyme (MbUGT1,2.2) (protein)
# chain: MATKGSSGMSLAERFWLTLSRSSLVVGRSCVEFEPETVPLLSTLRGKPITFLGLMPPLHEGRREDGEDATVRWLDAQPAKSVVYVALGSEVPLGVEKVHELALGLELAGTRFLWALRKPTGVSDADLLPAGFEERTRGRGVVATRWVPQMSILAHAAVGAFLTHCGWNSTIEGLMFGHPLIMLPIFGDQGPNARLIEAKNAGLQVARNDGDGSFDREGVAAAIRAVAVEEESSKVFQAKAKKLQEIVADMACHERYIDGFIQQLRSYKDDSGYSSSYAAAAGMHVVICPWLAFGHLLPCLDLAQRLASRGHRVSFVSTPRNISRLPPVRPALAPLVAFVALPLPRVEGLPDGAESTNDVPHDRPDMVELHRRAFDGLAAPFSEFLGTACADWVIVDVFHHWAAAAALEHKVPCAMMLLGSAEMIASIADERLEHAETESPAAAGQGRPAAAPTFEVARMKLIR
# B4: SEQ ID NO: 84: UGT85C1 (Stevia rebaudiana) (protein, listed as Stevia rebaudiana)
# chain: MDQMAKIDEKKPHVVFIPFPAQSHIKCMLKLARILHQKGLYITFINTDTNHERLVASGGTQWLENAPGFWFKTVPDGFGSAKDDGVKPTDALRELMDYLKTNFFDLFLDLVLKLEVPATCIICDGCMTFANTIRAAEKLNIPVILFWTMAACGFMAFYQAKVLKEKEIVPVKDETYLTNGYLDMEIDWIPGMKRIRLRDLPEFILATKQNYFAFEFLFETAQLADKVSHMIIHTFEELEASLVSEIKSIFPNVYTIGPLQLLLNKITQKETNNDSYSLWKEEPECVEWLNSKEPNSVVYVNFGSLAVMSLQDLVEFGWGLVNSNHYFLWIIRANLIDGKPAVMPQELKEAMNEKGFVGSWCSQEEVLNHPAVGGFLTHCGWGSIIESLSAGVPMLGWPSIGDQRANCRQMCKEWEVGMEIGKNVKRDEVEKLVRMLMEGLEGERMRKKALEWKKSATLATCCNGSSSLDVEKLANEIKKLSRN
# B5: SEQ ID NO: 71: AtUGT73C3 (Arabidopsis thaliana) (protein, listed as Arabidopsis thaliana)
# chain: MATEKTHQFHPSLHFVLFPFMAQGHMIPMIDIARLLAQRGVTITIVTTPHNAARFKNVLNRAIESGLAINILHVKFPYQEFGLPEGKENIDSLDSTELMVPFFKAVNLLEDPVMKLMEEMKPRPSCLISDWCLPYTSIIAKNFNIPKIVFHGMGCFNLLCMHVLRRNLEILENVKSDEEYFLVPSFPDRVEFTKLQLPVKANASGDWKEIMDEMVKAEYTSYGVIVNTFQELEPPYVKDYKEAMDGKVWSIGPVSLCNKAGADKAERGSKAAIDQDECLQWLDSKEEGSVLYVCLGSICNLPLSQLKELGLGLEESRRSFIWVIRGSEKYKELFEWMLESGFEERIKERGLLIKGWAPQVLILSHPSVGGFLTHCGWNSTLEGITSGIPLITWPLFGDQFCNQKLVVQVLKAGVSAGVEEVMKWGEEDKIGVLVDKEGVKKAVEELMGDSDDAKERRRRVKELGELAHKAVEKGGSSHSNITLLLQDIMQLAQFKN
# B6: SEQ ID NO: 33: SgUGT720-269-1 (Siraitia grosvenorii) (protein)
# chain: MEDRNAMDMSRIKYRPQPLRPASMVQPRVLLFPFPALGHVKPFLSLAELLSDAGIDVVFLSTEYNHRRISNTEALASRFPTLHFETIPDGLPPNESRALADGPLYFSMREGTKPRFRQLIQSLNDGRWPITCIITDIMLSSPIEVAEEFGIPVIAFCPCSARYLSIHFFIPKLVEEGQIPYADDDPIGEIQGVPLFEGLLRRNHLPGSWSDKSADISFSHGLINQTLAAGRASALILNTFDELEAPFLTHLSSIFNKIYTIGPLHALSKSRLGDSSSSASALSGFWKEDRACMSWLDCQPPRSVVFVSFGSTMKMKADELREFWYGLVSSGKPFLCVLRSDVVSGGEAAELIEQMAEEEGAGGKLGMVVEWAAQEKVLSHPAVGGFLTHCGWNSTVESIAAGVPMMCWPILGDQPSNATWIDRVWKIGVERNNREWDRLTVEKMVRALMEGQKRVEIQRSMEKLSKLANEKVVRGINLHPTISLKKDTPTTSEHPRHEFENMRGMNYEMLVGNAIKSPTLTKK
# Columns and labels:
# [1] = Kasai et al. 1989; cited from earlier work
# steviol glycoside = steviol glycoside bioconversion with complemented sucrose synthases in chassis strain; type: cell-based, E. coli; conditions: chassis strain with UGT SEQ ID NOS: 15 and 25, stevia leaf extract, glucose fed, 37° C., 48 hr, FIG. 3
# Text: Strains were created that expressed candidate sucrose synthase enzymes, which may improve UDP-glucose availability when fed sucrose. Expression of a sucrose synthase enables splitting of sucrose into fructose and glucose. Glucose can be funneled towards UDP-glucose biosynthesis. […] Genes were complemented on plasmid. Fold improvement is with respect to total steviol glycoside conversion. Stevia leaf extract, sucrose, and glucose were fed to the bioconversion strains. Bioconversion took place at 37° C. for 48 hr. Data were quantified by reverse phase LC DAD to quantify conversion of steviol glycosides.
# Mog. IIE or Mog. IE = experiment: branched glycosylation reactions by cells expressing UGT enzymes; type: cell-based, E. coli; conditions: Mog. IIE or Mog. IE fed; 37° C., 48 hr; LC-MS/MS
# Procedure: Mog. IIE or Mog. IE was fed to cells expressing various UGT enzymes. Reactions were incubated at 37° C. for 48 hr. Products were quantified by LC-MS/MS with authentic standards of each compound. “Indirect” evidence means that consumption of substrate was observed.
# Mog. II-E = experiment: production of Mog.III or siamenoside from Mog. II-E; type: cell-based, E. coli; conditions: 37° C., 48 hr; FIG. 19
# Procedure: II-E. In the experiment, engineered E. coli strains expressing UGT enzymes SEQ ID NO: 72, SEQ ID NO: 54 or SEQ ID NO: 13 were grown in fermentation media containing Mog. II-E at 37° C. for 48 hr. Products were quantified by LCMS/MS with authentic standards of each compound. […] IIE to Mog.III.
# mogrol [2] = experiment: primary glycosylation at C3 and C24 hydroxyls of mogrol by cells expressing UGT enzymes; type: cell-based, E. coli; conditions: mogrol fed; 37° C., 48 hrs; LCMS/MS
# Procedure: Specifically, mogrol was fed to cells expressing various UGT enzymes. Reactions were incubated at 37° C. for 48 hrs. Products were quantified by LCMS/MS with authentic standards of each compound.
# Mog. IA = experiment: bioconversion of Mog. IA into Mog. IIE; type: cell-based, E. coli; conditions: 96-well plates, 37° C., 48 hours; FIG. 18A
# Procedure: (§1) IE (FIG. 18B) into Mog. IIE. In the experiment, engineered E. coli chassis strains expressing UGT enzymes, SEQ ID NO: 84, SEQ ID NO: 71, or SEQ ID NO: 33 were incubated in fermentation media containing Mog. IA (FIG. 18A) or Mog. IE (FIG. 18B) in 96-well plates at 37° C. Product formation was examined after 48 hours. Products were measured on LC-MS/MS with authentic standards. The values of Mog. IIE levels in excess of the empty vector control were calculated. […] IE into Mog. IIE.
# Mog. IE = experiment: bioconversion of Mog. IE into Mog. IIE; type: cell-based, E. coli; conditions: 96-well plates, 37° C., 48 hours; FIG. 18B
# Procedure: as §1
# mogrol [3] = experiment: bioconversion of mogrol into mogroside intermediates; type: cell-based, E. coli; conditions: 96-well plates, 48 hours, in excess of empty vector control; FIG. 17A
# Procedure: The engineered bacterial strains described herein can be used for the glycosylation of a variety of substrates, including but not limited to terpenoid glycosides. In some aspects, the invention identifies UGT enzymes that are active on the mogrol or mogroside scaffolds. FIGS. 17A and B show the bioconversion of mogrol into mogroside intermediates. Engineered E. coli strains (chassis strain) expressing UGT enzymes were incubated in 96-well plates with mogrol. Product formation was examined after 48 hours. Reported values are those in excess of the empty vector control. Products were measured on LC-MS/MS with authentic standards. […] IE and/or Mog. IIE formed.
Molecule,C3 1-2 (Mog. IIE or Mog. IE),C3 1-6 (Mog. IIE or Mog. IE),C24 1-2 (Mog. IIE or Mog. IE),C24 1-6 (Mog. IIE or Mog. IE),bioconversion of Mog. IIE to Mog.III (Mog. II-E),C3 O-Glucosylation (mogrol [2]),C24 O-Glucosylation (mogrol [2]),bioconversion of Mog. IE into Mog. IIE (Mog. IE),also measured
C[C@H](CC[C@@H](O[C@@H]1O[C@H](CO[C@@H]2O[C@H](CO)[C@@H](O)[C@H](O)[C@H]2O)[C@@H](O)[C@H](O)[C@H]1O[C@@H]1O[C@H](CO)[C@@H](O)[C@H](O)[C@H]1O)C(C)(C)O)[C@H]1CC[C@@]2(C)[C@@H]3CC=C4[C@@H](CC[C@H](O[C@@H]5O[C@H](CO[C@@H]6O[C@H](CO)[C@@H](O)[C@H](O)[C@H]6O)[C@@H](O)[C@H](O)[C@H]5O)C4(C)C)[C@]3(C)[C@H](O)C[C@]12C [mogroside V],–,–,–,–,–,–,–,–,"sweetening capacity, times that of sucrose [1]: ~ 250 times"
"SEQ ID NO: 10: sucrose synthase, Glycine Max (GmSS)",–,–,–,–,–,–,–,–,improvement of total steviol glycoside conversion by sucrose synthase (steviol glycoside): dramatic improvements in glycosylation
"SEQ ID NO: 11: sucrose synthase, Glycine Max (GmSS_S11E)",–,–,–,–,–,–,–,–,improvement of total steviol glycoside conversion by sucrose synthase (steviol glycoside): dramatic improvements in glycosylation
B1,No,Yes,No,Yes,able to catalyze bioconversion of Mog. IIE to Mog.III,–,–,–,–
B2,No,Yes,No,No,able to catalyze bioconversion of Mog. IIE to Mog.III,–,–,–,–
B3,Yes,Yes,Yes,Yes,able to catalyze bioconversion of Mog. IIE to Mog.III,–,–,–,production of siamenoside from Mog. II-E (Mog. II-E): production of substantial amounts of siamenoside
B4,–,–,–,–,–,Yes,Yes,able to catalyze the bioconversion of Mog. IE into Mog. IIE,bioconversion of Mog.IA into Mog.IIE (Mog. IA): able to catalyze bioconversion of Mog.IA into Mog.IIE
B5,–,–,–,–,–,Yes,Yes,able to catalyze the bioconversion of Mog. IE into Mog. IIE,product formation from mogrol (mogrol [3]): largely produced Mog.IA from mogrol; bioconversion of Mog.IA into Mog.IIE (Mog. IA): able to catalyze bioconversion of Mog.IA into Mog.IIE
B6,–,–,–,–,–,Yes,Yes,able to catalyze the bioconversion of Mog. IE into Mog. IIE,product formation from mogrol (mogrol [3]): largely produced Mog.IA from mogrol
